Data reported in patent US20260258115A1 (MAPP BIOPHARMACEUTICAL, published 2026).

Key:
[1] = molecular target: T1, RSV postfusion F (postF), subtype A (respiratory syncytial virus subtype A, UniProt P03420 26-513); assay: BLI
T1 construct: also called Postfusion subtype A; F deltaFP

[2] = molecular target: T2, RSV prefusion F (preF), subtype B (respiratory syncytial virus subtype B); assay: BLI, IgG
T2 construct: also called Prefusion subtype B

[3] = molecular target: RSV F on RSV subtype A virus (mKate-RSV A2) (respiratory syncytial virus A2, UniProt P03420 26-574); assay: cell-based or functional assay
[4] = molecular target: RSV F on RSV subtype B virus (mKate-RSV B 18537) (respiratory syncytial virus B 18537, UniProt P13843 26-574); assay: cell-based or functional assay

B1: ADI-24832 (antibody, V domains shown)
VH: EVQLVESGGGLVKPGGSLRLSCAASGFTFSSYSMNWVRQAPGKGLEWVSSISASSSYIFYSDLVKGRFTISRDNAKNSLYLQMNSLRAEDTAVYYCARAGYYYGSGSYYVDYWGQGTLVTVSS
VL: QSVLTQPPSVSGAPGQRVAISCTGSSSNIGAGYDVHWYQQLPGTAPKLLIYGNSNRPSGVPDRFSGSKSGTSASLAITGLQAEDEADYYCQSYGSSLSGWVFGGGTKLTVL
notes: full-length IgG
B1 was tested, and the binding result [1] was “no binding”, the Kd [2] was 1.95 nM and the “Neut IC50 subtype A” value [3] was 0.49 µg/mL. For the same binder, the “Neut IC50 subtype B” value [4] was 0.24 µg/mL.

B2: ADI-24860 (antibody, V domains shown)
VH: EVQLLESGGGLVKPGGSLRLSCAASGLTFSDYYMSWIRQAPGKGLEWVSYISGGSSYSNYADSVKGRFTISRDNAKNSLYLQMNSLRAEDTAVYYCARGYCSGSSCYEAFDIWGQGTTVTVSS
VL: SYVLTQPPSVSGAPGQRVTISCTGSSSNIGAGFDVHWYQQLPGTAPKLLIYGNSDRPSGVPDRFSGSKSGTSASLAITGLQAEDEADYYCQSYDSSLSGYVFGTGTKVTVL
notes: full-length IgG; also called Ab 420
B2 was tested, and the binding result [1] was “no binding”, the Kd [2] was 1.56 nM and the “Neut IC50 subtype A” value [3] was 0.06 µg/mL. For the same binder, the “Neut IC50 subtype B” value [4] was 0.09 µg/mL.

B3: ADI-24835 (antibody, V domains shown)
VH: EVQLVESGGGLVKPGGSLRLSCAASGFPFSTSSMNWVRQAPGKGLEWVSSISSSSSYIDYADSVKGRFTISRDNAKNSLYLQMNSLRAGDTAVYYCARVPRSDWYYFDYWGQGTLVTVSS
VL: QSVVTQPPSVSGAPGQRVTISCTGSSSNIGAGYDVHWYQQLPGTAPKFLIYDNKYRPSGVPDRFSGSKSGTSASLAITGLQAEDEADYYCQSYDSSLSGYVFGTGTKLTVL
notes: full-length IgG
B3 was tested, and the binding result [1] was “no binding”, the Kd [2] was 5.55 nM and the “Neut IC50 subtype A” value [3] was 0.63 µg/mL. For the same binder, the “Neut IC50 subtype B” value [4] was 1.06 µg/mL.

B4: ADI-25524 (antibody, V domains shown)
VH: EVQLLESGGGLVKPGGSLRLSCAASGFTFSSYSMNWVRQAPGKGLEWVSSISSSSSYIYYADSVKGRFTISRDNAKNSLYLQMNSLRAEDTAVYYCAREWSPIVVVTNAFDIWGQGTMVTVSS
VL: QSVLTQPPSVSGAPGQRVTISCTGSSSNIGAGYDVHWYQQLPGTAPKLLIYGNSNRPSGVPDRFSGSKSGTSASLAITGLQAEDEADYYCQSYDSSLSGWVFGGGTKVTVL
notes: full-length IgG
B4 was tested, and the binding result [1] was “no binding”, the Kd [2] was 23.4 nM and the “Neut IC50 subtype A” value [3] was 1.77 µg/mL. For the same binder, the “Neut IC50 subtype B” value [4] was 2.09 µg/mL.

B5: ADI-24850 (antibody, V domains shown)
VH: QVQLVQSGGGLVKPGGSLRLSCAASGFTFSSYSMNWVRQAPGKGLEWVSSISSSSSYIYYADSVKGRFTISRDNAKNSLYLQMNSLRAEDTAVYYCAREDYGDYYYYYMDVWGKGTTVTVSS
VL: QPVLTQPPSVSGAPGQRVTISCTGSSSNIGAGYDVHWYQQLPGTAPKLLIYGNSNRPSGVPDRFSGSKSGTSASLAITGLQAEDEADYYCQSYDSSLSGYVFGTGTKVTVL
notes: full-length IgG
B5 was tested, and the binding result [1] was “no binding”, the Kd [2] was 5.56 nM and the “Neut IC50 subtype A” value [3] was 0.94 µg/mL. For the same binder, the “Neut IC50 subtype B” value [4] was 4.17 µg/mL.

B6: ADI-25495 (antibody, V domains shown)
VH: QVQLVQSGGGLVKPGGSLRLSCAASGFTFSSYSMNWVRQAPGKGLEWVSSISSSSSYIYYADSVKGRFTISRDNAKNSLYLQMNSLRAEDTAVYYCARGYCTNGVCYLDAFDIWGQGTTVTVSS
VL: QSVLIQPASVSGSPGQSITISCTGTSSDVGGYNYVSWYQQHPGKAPKLMIYDVSNRPSGVSNRFSGSKSGNTASLTISGLQAEDEADYYCSSYTSSSTPVVFGGGTKVTVL
notes: full-length IgG
With B6 the binding result [1] was “no binding”, the Kd [2] was 6.41 nM and the “Neut IC50 subtype A” value [3] was 0.24 µg/mL. For the same binder, the “Neut IC50 subtype B” value [4] was 5.6 µg/mL.

B7: ADI-24849 (antibody, V domains shown)
VH: QVQLVQSGGVVVQPGGSLRLSCAASGFTFDDYTMHWVRQAPGKGLEWVSLIGWDGGSTYYADSVKGRFTISRDNSKYSLYLQMNSLRTEDTALYYCAKDLGSSSGYFLGRDYYGMDVWGQGTTVTVSS
VL: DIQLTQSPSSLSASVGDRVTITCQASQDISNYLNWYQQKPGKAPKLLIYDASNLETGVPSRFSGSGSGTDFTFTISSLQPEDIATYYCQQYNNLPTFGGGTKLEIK
notes: full-length IgG; also called Ab 410
In the case of B7, the binding result [1] is reported as “no binding”, the Kd [2] is reported as 1.17 nM and the “Neut IC50 subtype A” value [3] is reported as 0.01 µg/mL. The “Neut IC50 subtype B” value [4] was 0.03 µg/mL.

B8: ADI-19475 (antibody, V domains shown)
VH: EVQLLESGAEVKKPGASVKVTCKASGYTFTHFGINWVRQAPGQGLEWLGWISAYNGNTNYVQKIQGRVTMTTDTSTNTAYMELRSLRSDDTAVYYCARGPPVEAAGTFDYWGQGTLVTVSS
VL: DIVLTQSPLSLPVTLGQPASISCRSSQSLVYSDGNTYLTWFQQRPGQSPRRLIYKVSNRDSGVPDRFSGSGSGTDFTLQISRVEAEDVGVYYCMQGTHWPFTFGPGTKVEIK
notes: full-length IgG
In the case of B8, the binding result [1] is reported as “no binding”, the Kd [2] is reported as 4.25 nM and the “Neut IC50 subtype A” value [3] is reported as 0.05 µg/mL. The “Neut IC50 subtype B” value [4] was 0.04 µg/mL.

B9: ADI-22757 (antibody, V domains shown)
VH: EVQLLESGAEVKKPGASVKVSCKASGYTFSNYGISWVRQAPGQGLEWMGWISVYNGNTEYAQKFQGRLTMTTDTSTSTAYMELRSLRSDDTAVYYCARDPPAVAASFMDVWGQGTTVTVSS
VL: EIVLTQSPLSLPVTLGQPASISCRSSQSLVHSEGNTYLSWFQQRPGQSPRRLIYKVSNRDSGVPDRFSGSGSGTDFTLKISRVEAEDVGLYFCMQGTHWPPTFGGGTKVEIK
notes: full-length IgG
With B9 the binding result [1] was “no binding”, the Kd [2] was 0.538 nM and the “Neut IC50 subtype A” value [3] was 0.06 µg/mL. For the same binder, the “Neut IC50 subtype B” value [4] was 0.07 µg/mL.

B10: ADI-19501 (antibody, V domains shown)
VH: QVQLVQSGAEVKKPGASVKVSCKASGYAFTNYGVSWVRQAPGQGLEWMGWISVYNGNTNYAQKLQGRVTMTTDTSTSTAYMELRSLRSDDTALYYCARDPPSEGAAGLFDYWGQGTLVTISS
VL: DIVMTQSPLSLPVTLGQPASFSCRSSQSLVYSDGNTYLSWFQQRPGQSPRRLIYKVSNRDSGVPDRFSGSGSGTDFTLKISRVEAEDVGVYYCMQGTHWPCTFGQGTKVEIK
notes: full-length IgG
With B10 the binding result [1] was “no binding”, the Kd [2] was 1.59 nM and the “Neut IC50 subtype A” value [3] was 0.02 µg/mL. The “Neut IC50 subtype B” value [4] was 0.02 µg/mL.

B11: ADI-24831 (antibody, V domains shown)
VH: QVQLVESGGGLVKPGGSLRLSCAASGFTFSSYSMNWVRQAPGKGLEWVSSISSSSSYIYYADSVKGRFTISRDNAKNSLYLQMNSLRAEDTAVYYCARVPSDFWSGYYNDYWGQGTLVTVSS
VL: QSVLTQPPSVSGAPGQRVTISCTGSSSNIGAGYDVHWYQQLPGTAPKLLIYGNSNRPSGVPDRFSGSKSGTSASLAITGLQAEDEADYYCQSYDSSLSGSWVFGGGTKLTVL
notes: full-length IgG; also called Ab 393
B11 was tested, and the binding result [1] was “no binding”, the Kd [2] was 6.23 nM and the “Neut IC50 subtype A” value [3] was 0.21 µg/mL. The “Neut IC50 subtype B” value [4] was 3.29 µg/mL.

B12: ADI-22774 (antibody, V domains shown)
VH: EVQLLESGGGLVKPGGSLRLSCAASGFTFSSYSMNWVRQAPGKGLEWVSSISSSSSYIYYADSVKGRFTISRDNAKNSLYLQMNSLRAEDTAVYYCAREGASGYNYRYYFDYWGQGTLVTVSS
VL: QSVLTQPPSVSGAPGQRVTISCTGSSSNIGAGYDVHWYQQFPGAAPKLLIYGNNNRPSGVPDRFSGSKSGTSASLAITGLQADDEADYYCQSYDSSLSGYVVFGGGTKLTVL
notes: full-length IgG
In the case of B12, the binding result [1] is reported as “no binding”, the Kd [2] is reported as 4.28 nM and the “Neut IC50 subtype A” value [3] is reported as 0.29 µg/mL. For the same binder, the “Neut IC50 subtype B” value [4] was 7.53 µg/mL.

B13: ADI-25462 (antibody, V domains shown)
VH: EVQLVESGGGLVKPGGSLRLSCAASGFTFSSYSMNWVRQAPGKGLEWVSSISSSSSYIYYADSVKGRFTISRHNAKNSLYLQMNSLRAEDTAVYYCARGSSSSWFCFDYWGQGTLVTVSS
VL: SYVLTQPPSVSGAPGQRVTISCTGSSSNIGAGYDVHWYQQLPGTAPKLLIYGNSNRPSGVPDRFSGSKSGTSASLAITGLQAEDEADYYCQSYDSSLSYVFGTGTKLTVL
notes: full-length IgG
With B13 the binding result [1] was “no binding”, the Kd [2] was 1.71 nM and the “Neut IC50 subtype A” value [3] was 0.15 µg/mL. The “Neut IC50 subtype B” value [4] was 0.11 µg/mL.

B14: ADI-24839 (antibody, V domains shown)
VH: EVQLVESGGGLVKPGGSLRLSCAASGFTFSSYSMNWVRQAPGKGLEWVSSISSSSSYIYYADSVKGRFTISRDNAKNSLYLQMNSLRAEDTAVYYCARVLVATAYGNAFDIWGQGTMVTVSS
VL: QSVLTQPPSVSGAPGQRVTISCTGSSSNIGAGYDVHWYQQLPGTAPKLLIYGNSNRPSGVPDRFSGSKSGTSASLAITGLQAEDEADYYCQSYDSSLTVVFGGGTKLTVL
notes: full-length IgG
In the case of B14, the binding result [1] is reported as “no binding”, the Kd [2] is reported as 9.63 nM and the “Neut IC50 subtype A” value [3] is reported as 0.44 µg/mL. For the same binder, the “Neut IC50 subtype B” value [4] was 4.1 µg/mL.

B15: ADI-24842 (antibody, V domains shown)
VH: QVQLVQSGGGLVKPGGSLRLSCAASGFTFSSYSMNWVRQAPGKGLEWVSSISSSSSYIYYADSVKGRFTISRDNAKNSLYLQMNSLRAEDTAVYYCARVPPHDYGGYYFDYWGQGTLVTVSS
VL: QSVVTQPPSVSGAPGQRVTISCTGSSSNIGAGYDVHWYQQLPGTAPKLLIYRNSNRPSGVPDRFSGSKSGTSASLAIIGLQAEDEADYYCQSYDSSLSVVFGGGTKLTVL
notes: full-length IgG
For B15, the binding result [1] was “no binding”, the Kd [2] was 2.76 nM and the “Neut IC50 subtype A” value [3] was 0.03 µg/mL. The “Neut IC50 subtype B” value [4] was 0.03 µg/mL.

B16: ADI-24828 (antibody, V domains shown)
VH: EVQLVESGGGLVKPGGSLRLACAASGFSFRSYRMNWVRQAPGKGLEWVSSISSSSSYIDYADSVKGRFTISRDNAKNTVYLQVNSLRAEDTAVYYCARDGRTIFGVVIDYWGQGTLVTVSS
VL: QSVLTQPPSVSGAPGQRVTISCTGSSSNIGAGYDVHWYQQLPGTAPKLLIYGNNNRPSGVPDRFSGSKSGTSASLVITGLQAEDEADYYCQSYDSSLSVVFGGGTKLTVL
notes: full-length IgG; also called Ab 390
With B16 the binding result [1] was “no binding”, the Kd [2] was 0.391 nM and the “Neut IC50 subtype A” value [3] was 0.02 µg/mL. For the same binder, the “Neut IC50 subtype B” value [4] was 0.04 µg/mL.

B17: ADI-24857 (antibody, V domains shown)
VH: EVQLLESGGGLVKPGGSLRLSCAASGFTFSSYSMNWVRQAPGKGLEWVSSISSSSSYIYYADSVKGRFTISRDNAKNSLYLQMNSLRAEDTAVYYCAREGYYYGSGSYLDYWGQGTLVTVSS
VL: QSVVTQPPSVSGAPGQRVTISCTGSSSNIGAGYDVHWYQQLPGTAPKLLIYGNSNRPSGVPDRFSGSKSGTSASLAITGLQAEDEADYYCQSYDSSLSVVFGGGTKLTVL
notes: full-length IgG
For B17, the binding result [1] was “no binding”, the Kd [2] was 3.71 nM and the “Neut IC50 subtype A” value [3] was 0.18 µg/mL. For the same binder, the “Neut IC50 subtype B” value [4] was 1.4 µg/mL.
